Experimental data taken from patent US20050113284A1 (published 2005).

B1: prey clone No. 3-309: C-terminal 91 amino acids of the human c-Met β chain fused to GAL4-AD (other, not shown: large carriers)
chain: RRLLQPEYCPDPLYEVMLKCWHPKAEMRPSFSELVSRISAIFSTFIGEHYVHVNATYVNVKCVAPYPSLLSSEDNADDEVDTRPASFWETS
notes: also called human HGF receptor c-Met prey vector

Key:
[1] = molecular target: T1, human MERMUC bait-2 protein (C-terminal 123 amino acids of human MERMUC fused to GAL4-DB) (yeast; human); test: yeast two-hybrid screen of a human kidney cDNA library
T1 construct: also called MERMUC bait protein; fusion protein A
Experimental: Specifically, yeast two hybrid system (Proc. Natl. Acad. Sci. USA., 1991, Vol.88, p.9578-9582) was performed to screen a human kidney cDNA library using cDNA corresponding to the C-terminal region of the human MERMUC as the bait (that is, fishing bait).
On the other hand, each cDNA of the human kidney derived cDNA library (CLONTECH) that is used for the screening with the bait vector is inserted in pADK vector (tryptophan biosynthesis gene as a marker). Therefore, proteins produced through the expression of each of these cDNAs in yeast are produced as a fusion protein ([fusion protein B]) with the GAL4 transcriptional activation region (GAL4-AD).

[2] = molecular target: T1, human MERMUC bait-2 protein (C-terminal …); test: yeast two-hybrid (growth on SD/-Leu,-Trp,-His and SD/-Leu,-Trp,-Ade)
Experimental: The binding activity between the c-Met prey proteins derived from the 7 DNA fragments and the MERMUC bait protein was analyzed by the yeast two-hybrid system described in Example 1. Specifically, the binding activity was evaluated based on the growth of yeast transformed with the vector on 2 kinds of yeast minimum media, i.e., (1) SD/-Leu, -Trp, -His media and (2) SD/-Leu, -Trp, -Ade media.

[3] = molecular target: B1; test: yeast two-hybrid
Experimental: (§1) Yeast AH109 strain was cotransfected with each of the bait vectors and the prey vector carrying human HGF receptor c-Met (DNA corresponding to the C-terminal 91 amino acids of the human c-Met; clone No. 3-309) identified in Example 1.
(§2) The binding ability of MERMUC bait protein derived from each of the bait vectors to the HGF receptor c-Met β chain was analyzed by the yeast two-hybrid system described above.

[4] = molecular target: MERMUC bait protein C53 (amino acids 451-503 of SEQ ID NO: 10) fused to GAL4-DB (yeast; human, UniProt P04386 1-147); test: yeast two-hybrid
Experimental: as §1, §2

[5] = molecular target: MERMUC bait protein C260 (amino acids 244-503 of SEQ ID NO: 10) fused to GAL4-DB (yeast; human, UniProt P04386 1-147); test: yeast two-hybrid
Experimental: as §1, §2

Binder | binding result [1] | binding result [2] | also measured
prey clone No. 3-312: C-terminal 89 amino acids of the human c-Met β chain fused to GAL4-AD (other, not shown: large carriers) LLQPEYCPDPLYEVMLKCWHPKAEMRPSFSELVSRISAIFSTFIGEHYVHVNATYVNVKCVAPYPSLLSSEDNADDEVDTRPASFWETS | binds | – | –
c-Met prey protein A (amino acids 1003-1083 of SEQ ID NO: 4) fused to GAL4-AD (other, not shown: large carriers, also called prey DNA A) DPLYEVMLKCWHPKAEMRPSFSELVSRISAIFSTFIGEHYVHVNATYVNVKCVAPYPSLLSSEDNADDEVDTRPASFWETS | – | binds | –
c-Met prey protein G (amino acids 993-1043 of SEQ ID NO: 4) fused to GAL4-AD (other, not shown: large carriers, also called prey DNA G) RRLLQPEYCPDPLYEVMLKCWHPKAEMRPSFSELVSRISAIFSTFIGEHYV | – | no binding | –
MERMUC bait protein C260ΔC53 (amino acids 244-450 of SEQ ID NO: 10) fused to GAL4-DB (other, not shown: small tags and cut ends, also called C260A53; C260AC53) VKASSTSDPPALPDSTEAKPHITEVTASAETLSTAGTTESAAPHATVGTPLPTNSATEREVTAPGATTLSGALVTVSRNPLEETSALSVETPSYVKVSGAAPVSIEAGSAVGKTTSFAGSSASSYSPSEAALKNFTPSETPTMDIATKGPFPTSRDPLPSVPPTTTNSSRGTNSTLAKITTSAKTTMKPPTATPTTARTRPTTDVSA | – | – | binding result [3]: no binding
c-Met prey protein B (amino acids 1013-1083 of SEQ ID NO: 4) fused to GAL4-AD (other, not shown: large carriers, also called prey DNA B) WHPKAEMRPSFSELVSRISAIFSTFIGEHYVHVNATYVNVKCVAPYPSLLSSEDNADDEVDTRPASFWETS | – | binds | –
c-Met prey protein C (amino acids 1023-1083 of SEQ ID NO: 4) fused to GAL4-AD (other, not shown: large carriers, also called prey DNA C) FSELVSRISAIFSTFIGEHYVHVNATYVNVKCVAPYPSLLSSEDNADDEVDTRPASFWETS | – | no binding | –
B1 | binds | – | binding result [4]: binds; binding result [5]: binds
prey clone No. 2-211: C-terminal 56 amino acids of human MERMUC fused to GAL4-AD (other, not shown: large carriers) VSAGENGGFLLLRLSVASPEDLTDPRVAERLMQQLHRELHAHAPHFQVSLLRVRRG | binds | – | –
prey clone No. 2-22: C-terminal 93 amino acids of human MERMUC fused to GAL4-AD (other, not shown: large carriers) SSRGTNSTLAKITTSAKTTMKPPTATPTTARTRPTTDVSAGENGGFLLLRLSVASPEDLTDPRVAERLMQQLHRELHAHAPHFQVSLLRVRRG | binds | – | –
